Test results: paper PMC8517388
Read-outs that look alike come from different tables or passages of the source. Values belong to the molecule of their own block, whether it stands above or below them.

Legend:
[1] = target: TROP-2 ectodomain expressed in insect cells (TROP-2-ECD-insect) (human) (UniProt P09758); assay: crystal structure
[2] = target: TROP-2 ectodomain expressed in insect cells (TROP-2-ECD-insect) (human) (UniProt P09758); assay: ITC
[3] = target: TROP-2 ectodomain expressed in insect cells (TROP-2-ECD-insect) (human) (UniProt P09758); assay: crystal structure; remark: listed apart in the source
[4] = target: TROP-2 ectodomain expressed in HEK-293T cells (TROP-2-ECD-293T) (human) (UniProt P09758); assay: crystal structure
[5] = target: TROP-2 ectodomain expressed in HEK-293T cells (TROP-2-ECD-293T) (human) (UniProt P09758); assay: crystal structure; remark: listed apart in the source
[6] = BS3 cross-linking, SDS-PAGE; conditions: glycan changed form; control: TROP-2-ECD from HEK-293T cells

stoichiometry N [1]: 4
Kd [2]: 402 µM
dH [2]: 9.14 kcal/mol
stoichiometry N [3]: 2
Molecule: TROP-2 ectodomain expressed in insect cells (TROP-2-ECD-insect) (from UniProt P09758 27-274) (domain or fragment)

stoichiometry N [4]: 2
stoichiometry N [5]: 4
Molecule: TROP-2 ectodomain expressed in HEK-293T cells (TROP-2-ECD-293T) (from UniProt P09758 27-274) (domain or fragment)

B1: TROP-2 (trophoblast cell surface antigen 2) ectodomain, TROP-2-ECD: expression in insect cells (protein)
parent chain: MARGPGLAPPPLRLPLLLLVLAAVTGHTAAQDNCTCPTNKMTVCSPDGPGGRCQCRALGSGMAVDCSTLTSKCLLLKARMSAPKNARTLVRPSEHALVDNDGLYDPDCDPEGRFKARQCNQTSVCWCVNSVGVRRTDKGDLSLRCDELVRTHHILIDLRHRPTAGAFNHSDLDAELRRLFRERYRLHPKFVAAVHYEQPTIQIELRQNTSQKAAGDVDIGDAAYYFERDIKGESLFQGRGGLDLRVRGEPLQVERTLIYYLDEIPPKFSMKRLTAGLIAVIVVVVVALVAGMAVLVITNRRKSGKYKKVEIKELGELRKEPSL
oligomerisation [6]: no change
